Laboratory results from US20180021429A1, “ANTICANCER AGENTS OR ANTIMETASTATIC AGENTS USING FSTL1 AND COMBINATION DRUG THEREOF” (PHARMA FOODS INTERNATIONAL CO., LTD., priority 2015, published 2018).

Tests used:
[1] = test system: GFP-positive and Snail-positive B16-F10 tumor cells; experiment: In vivo, intraperitoneal administration, Snail-positive B16-F10 bone metastasis model (Example 18); set-up: species or system mouse; details: intraperitoneal 10 mg/kg on days 5 and 10; day 14
Description: 1. Experiment Group (n=5) • 1. No treatment (0.9% NaCl as a sham) • 2. Control IgG (anti-DNP) • 3. Anti-FSTL1 Clone #6-55 • 4. Anti-FSTL1 Clone #7-34 • 5. Anti-FSTL1 Clone #8-1 […]
• Effects on the growth of subcutaneous tumor (calculation of tumor volume by tumor size measurement): measured 7, 11, and 14 days after tumor implantation (FIG. 42B) • Effects on bone metastasis (GFP-positive tumor cells in bone marrow or the spleen) (FIGS. 42A and 42C) • Effects on MSC expansion (CD45-negative cells in bone marrow or the spleen) (FIGS. 42A and 42C) • Effects on weight loss (FIG. 42A) • Effects on the expansion of immunosuppressive Treg cells (CD4-positive and Foxp3-positive cells in the spleen) (FIG. 42C) • Other immunosuppressive properties (FIG. 42C)
In Example 17, the antibody was administered into tumor according to the purpose of “inhibiting metastasis from a primary focus to bone” as previously conducted by the present inventors. […] Specifically, antitumor effects and immunosuppression-mitigating effects were comparatively analyzed by the intraperitoneal administration (systemic administration) of the anti-FSTL1 antibody using bone metastasis models in which mouse melanoma cells (B16-F10) forced to express Snail were subcutaneously and intravenously transplanted in C57BL/6N mice. […]

mouse lymphoma EL4 [2] = experiment: In vivo, mouse lymphoma EL4 (Example 23); details: intraperitoneal 10 mg/kg on days 3 and 6, vs control antibody
Experimental: (§1) The drug efficacy of the anti-FSTL1 antibody was evaluated according to Examples 17 to 20 using mouse lymphoma EL4, which is a cancer type having enhanced FSTL1 expression.
(§2) 1. Experiment Group (n=5) • 1. Mouse lymphoma EL4+control IgG (anti-DNP mAb) • 2. Mouse lymphoma EL4+anti-FSTL1 mAb (#6-55)
(§3) • Day 0: transplantation of tumor cells (1×10^6 cells subcutaneously & 1×10^6 cells intravenously) • Day 3: intraperitoneal administration of the antibody (first dose, corresponding to 200 μg/mouse=10 mg/kg) • Day 6: intraperitoneal administration of the antibody (second dose, corresponding to 200 μg/mouse=10 mg/kg) • Day 15: various immunological assays
(§4) • Effects on the growth of subcutaneous tumor (calculation of tumor volume by tumor size measurement): measured 3, 6, and 10 days after tumor implantation

[3] = test system: human pancreatic cancer cell line Panc1; experiment: Action of anti-FSTL1 antibody under FSTL1 stimulation (Example 26); type: cell-based; details: Panc1 stimulated with FSTL1 for 3 days; antibody 5 μg/ml
Experimental: (§5) Next, in order to examine how surrounding tumor cells were changed in a cancer microenvironment by receiving FSTL1 produced by Snail/FSTL1-expressing cells, and how the anti-FSTL1 antibody acts thereon, a human pancreatic cancer cell line Panc1 confirmed to express Snail or FSTL1 only slightly was stimulated with FSTL1 for 3 days. The anti-FSTL1 antibody (#6-55, 5 μg/ml) or a control antibody (aHema, 5 μg/ml) was added to this culture system, and subsequent change in cell function was analyzed in the same way as in the preceding paragraph. […] The paper also reports that FSTL1 enhances invasive capacity.

[4] = test system: mouse colorectal cancer CT26 cells; experiment: Mouse colorectal cancer CT26 cell-transplanted model (Example 20); type: in vivo
Experimental: Procedures and methods of the experiment were basically performed under substantially the same conditions as in the bone metastasis model experiments of Examples 17 to 19 except that bone metastasis was not evaluated. Specifically, drug efficacy evaluation was conducted using mouse tumor models other than Snail-positive tumor bone metastasis models. The drug efficacy of the anti-FSTL1 antibody was evaluated using cancer-bearing models of BALB/c mice different in strain from the C57BL/6 mice used in the preceding tests. The test was conducted by changing only the amount of tumor implanted, antibody administration timing, and assay timing. • Day 0: transplantation of tumor cells (5×10^5 cells subcutaneously & 5×10^5 cells intravenously) Days 4 and 7: intraperitoneal administration of the antibody (10 mg/kg) • Day 14: drug efficacy evaluation (subcutaneous tumor growth (FIG. 108A) and lung metastasis (FIG. 108B)) For lung metastasis, the number of metastatic nodules in the lung was macroscopically counted. The tumor volumes of the mice were measured 7, 11, and 14 days after tumor implantation.

FSTL1 = target: T1, FSTL1 (Homo sapiens, UniProt Q12841); experiment: Action of anti-FSTL1 antibody on Panc1 under FSTL1 stimulation; type: cell-based; set-up: purchased R&D Systems, Inc. 1694-FN-050; details: Panc1 stimulated with FSTL1 for 3 days; antibody 5 μg/ml
T1 sequence (Q12841 21-308): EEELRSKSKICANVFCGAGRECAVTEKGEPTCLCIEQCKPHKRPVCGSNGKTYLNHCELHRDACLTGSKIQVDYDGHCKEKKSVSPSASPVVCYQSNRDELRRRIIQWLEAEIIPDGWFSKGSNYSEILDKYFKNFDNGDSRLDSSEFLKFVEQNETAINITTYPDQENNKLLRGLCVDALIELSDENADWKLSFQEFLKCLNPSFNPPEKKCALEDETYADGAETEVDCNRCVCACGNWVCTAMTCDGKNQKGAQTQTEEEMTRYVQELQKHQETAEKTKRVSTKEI
Experimental: as §5

mouse lymphoma EL4 [5] = experiment: In vivo lymphoma model (Example 23); details: intraperitoneal 10 mg/kg on days 3 and 6; vs control antibody
Experimental: as §1, §2, §3, §4

| Molecule | effect on weight loss (mouse body weight) [1] | subcutaneous tumor growth (mouse lymphoma EL4 [2]) | cell growth [3] | invasive capacity enhanced by FSTL1 [3] | growth and lung metastasis of CT26 subcutaneous tumor ([4]; BALB/c mice, intraperitoneal 10 mg/kg on days 4 and 7, day 14, FIG. 108) | number of metastatic nodules in the lung ([4]; day 14, control antibody group 14 nodules on average, FIG. 108B) [nodules] | disappearance of solid tumor (mice) ([4]; n=5, intraperitoneal 10 mg/kg on days 4 and 7) | cell growth (FSTL1) | invasive capacity enhanced by FSTL1 (FSTL1) | subcutaneous tumor growth (mouse lymphoma EL4 [5]) |
| --- | --- | --- | --- | --- | --- | --- | --- | --- | --- | --- |
| #8-1: chicken-mouse chimeric anti-FSTL1 antibody clone; variable regions SEQ ID NO: 791 (light), 793 (heavy) (antibody, V domains shown, mouse constant regions) VH: AVTLDESGGGLQTPGGALSLVCKGSGFTFSSFNMFWVRQAPGKGLEWVAGIGKDGVPKYGAAVDGRATISKDNGQSTMRLQLNNLRAEDTGTYFCAKAAGGCSYDWCGIYAGDIDTWGHGTEVIVSS VL: ASTQPSSVSANPGEAVKITCSGGSGSYYGWYQQKSPGSAPVTVIYNNNQRPSDIPSRFSGSKSGSTATLTITGVQAEDEAVYFCGGYDSSSGHGGIFGAGTTLTVL | anti-weight loss effect | – | – | – | – | – | – | – | – | – |
| #6-55: chicken-mouse chimeric anti-FSTL1 antibody clone; variable regions SEQ ID NO: 783 (light), 785 (heavy) (antibody, V domains shown, mouse constant regions) VH: AVTLDESGGGLQTPGGALSLVCKGSGFTFTSVTMQWVRQAPGKGLEWVASVCSGSSTYYAPAVKGRATISRDNGQSTVRLQLSNLRPEDTGTYYCAKIAGRARWSCTSAAYNIDAWGHGTEVIVSS VL: ASTQPSSVSAIPGETVKITCSGGGNNYGWYQQRSPGSAPVTVIYYNDNRPSNIPSRFSGSTSGSTSTLTITGVQADDEAIYYCGSWDSNTDSGIFGAGTTLTVL | anti-weight loss effect | strongly suppressed | the cell growth was reduced by the addition of the anti-FSTL1 antibody together with FSTL1 | the action thereof is canceled | very strongly suppressed | 0 to 3 | three out of the five mice | the cell growth was reduced | the action thereof is canceled | strongly suppressed |
